Measurements taken from patent publication US20040098763A1 (published 2004).

Legend:
[1] = target: T1, Cdc2b (Cdc2bAt) in DB-vector (A. thaliana, UniProt P04386 1-147; P25859 1-309); assay: yeast two-hybrid (MaV203), X-Gal filter assay for β-galactosidase; AD construct x BD construct
T1 construct: Yeast two-hybrid DB/BD fusion
Procedure: (§1) ⁽¹⁾For each interaction test, yeast strain (MaV203) was transformed first with AD constructs listed in the first row, and then with BD constructs listed in the first column of the table following standard protocol. Three independent colonies from each interaction combination were used in X-Gal filter assay for β-galactosidase activity. The results of X-Gal assays were recorded at 2, 4, and 20 hours (overnight). Color intensity determined by visual inspection: “−” = none; “+” = weak; “++” = moderate; “+++” = strong. ⁽²⁾Faint color was visible after overnight incubation.

[2] = target: T2, Cdc2a (Cdc2aAt) in DB-vector (Arabidopsis, UniProt P04386 1-147; P24100 1-294); assay: as above
T2 construct: Yeast two-hybrid DB/BD fusion; also called Arath;CDKA;1
Procedure: as §1

[3] = target: T3, CycD1 (Arath; CycD1; 1) in DB-vector (A. thaliana, UniProt P04386 1-147; P42751 1-339); assay: as above
T3 construct: Yeast two-hybrid DB/BD fusion
Procedure: as §1

[4] = target: T4, CycD2 (Arath; CycD2; 1) in DB-vector (Arabidopsis, UniProt P04386 1-147; P42752 1-361); assay: as above
T4 construct: Yeast two-hybrid DB/BD fusion; also called cyclin D2
Procedure: as §1

[5] = target: T1, Cdc2b (Cdc2bAt) in DB-vector; assay: yeast two-hybrid, quantification of reporter activity; ICK1 in GAL4-AD vector, partner in DB vector
[6] = target: T3, CycD1 (Arath; CycD1; 1) in DB-vector; assay: as above
[7] = target: T4, CycD2 (Arath; CycD2; 1) in DB-vector; assay: as above
[8] = target: T5, CycD3 (Arath; CycD3; 1) in DB-vector (Arabidopsis, UniProt P04386 1-147; P42753 1-376); assay: as above
T5 construct: Yeast two-hybrid DB/BD fusion; also called cyclin D3

[9] = target: T6, CycA2 (Arath; CycA2; 2) in DB-vector (A. thaliana, UniProt P04386 1-147; Q147G5 1-436, limits assumed); assay: as above
T6 construct: Yeast two-hybrid DB fusion

[10] = target: T7, CycB1 (Arath; CycB1; 1) in DB-vector (A. thaliana, UniProt P04386 1-147; P30183 1-428); assay: as above
T7 construct: Yeast two-hybrid DB fusion; also called Cyc1At

[11] = target: T8, CycB2 (Arath; CycB2; 2) in DB-vector (A. thaliana, UniProt P04386 1-147; Q39070 1-429); assay: as above
T8 construct: Yeast two-hybrid DB fusion

PCNAAt in DB-vector = target: T9, PCNAAt in DB-vector (Arabidopsis); assay: as above
T9 construct: Yeast two-hybrid DB/BD fusion; also called Arabidopsis PCNA

ATMAP2 in DB-vector = target: T10, ATMAP2 in DB-vector (A. thaliana); assay: as above
T10 construct: Yeast two-hybrid DB fusion; also called MAP kinase

[12] = target: T11, vector alone (DB-vector without a gene) (UniProt P04386 1-147); assay: as above
T11 construct: also called Control

[13] = target: T2, Cdc2a (Cdc2aAt) in DB-vector; assay: as above

B1: ICN2 (AD construct) (other, not shown: large carriers)
chain: KKKQRERAHKNPREKKMSERKRELAEEASSTSFSPLKKTKLNDSSDSSPDSHDVIVFAVSSSSVASSAALASDECSVTIGGEESDQSSSISSGCFTSESKEIAKNSSSFGVDLEDHQIETETETSTFITSNFRKETSPVSEGLGETTTEMESSSATKRKQPGVRKTPTAAEIEDLFSELESQDDKKKQFIEKYNFDIVNDEPLEGRYKWDRL
notes: also called ICK4
binding result [1]: no binding
binding result [2]: no binding

B2: ICN6 (AD construct) (other, not shown: large carriers)
chain: LSPEKTIMSLREMSETKPKRDSEYEGSNIKRMRLDDDDDVLRSPTRTLSSSSSSSLAYSVSDSGGFCSVALSEEEDDHLSSSISSGCSSSETNEIATRLPFSDLEAHEISETEISTLLTNNFRKQGISSSENLGETAEMDSATTEMRDQRKTEKKKKMEKSPTQAELDDFFSAAERYEQKRFTEKYNYDIVNDTPLEGRYQWVSLKP
notes: also called ICK5
binding result [1]: no binding
binding result [2]: no binding

B3: CKS1At (AD construct) (other, UniProt O23249 1-87, looked up, not shown: large carriers)
chain: MGQIQYSEKYFDDTFEYRHVVLPPEVAKLLPKNRLLSENEWRAIGVQQSRGWVHYAVHRPEPHIMLFRRPLNYQQQQENQAQNMLVK
binding result [3]: no binding
binding result [4]: no binding

B4: ICN7 (AD construct) (other, not shown: large carriers)
chain: MGKYMKKSKITGDISVMEVSKATAPSPGVRTRAAKTLALKRLNSSAADSALPNDSSCYLQLRSRRLEKPSSLIEPKQPPRVHRSGIKESGSRSRVDSVNSAPVAQSSNEDECFDNFVSVQVSCGENSLGFESRHSTRESTPCNFVEDMEIMVTPGSSTRSMCRATKEYTREQDNVIPTTSEMEEFFAYAEQQQQRLFMEKYNFDIVNDIPLSGRYEWVQVKP
notes: also called ICK6
binding result [1]: no binding

B5: ICDK of Chenopodium rubrum (AD construct) (other, not shown: large carriers)
chain: MAAAATPTSSPAKKIKKVSKSSYNIPQLRSRRKNLSAPENFAELETTPLEVAAVVEEEEVANCSSSEVITTARSDFPPSCCSSNYDQLSSSEPEVVKDDDGLGNRTADPEVESGEASSKQKESHRTEAREATKLDDQDYPATKSTVQIKMPSDSEIEEFFAVAEKDLQKRFSEKYNFDIVKDVPLKGRYDWVPINP
notes: Yeast two-hybrid AD fusion; also called ICKCr; Chenopodium ICDK
binding result [1]: no binding
binding result [2]: no binding

B6: ICK1 in a GAL4-activation domain vector (other, not shown: large carriers)
chain: MVRKYRKAKGIVEAGVSSTYMQLRSRRIVYVRSEKSSSVSVVGDNGVSSSCSGSNEYKKKELIHLEEEDKDGDTETSTYRRGTKRKLFENLREEEKEELSKSMENYSSEFESAVKESLDCCCSGRKTMEETVTAEEEEKAKLMTEMPTESEIEDFFVEAEKQLKEKFKKKYNFDFEKEKPLEGRYEWVKLE
notes: Yeast two-hybrid AD fusion; the GAL4 domain is placed first as in standard vectors
binding result [1]: no binding
Quantification (yeast two-hybrid reporter activity) [5]: 0
Quantification (yeast two-hybrid reporter activity) [6]: 3.13
Quantification (yeast two-hybrid reporter activity) [7]: 14.8
Quantification (yeast two-hybrid reporter activity) [8]: 22.7
Quantification (yeast two-hybrid reporter activity) [9]: 0.03
Quantification (yeast two-hybrid reporter activity) [10]: 0.06
Quantification (yeast two-hybrid reporter activity) [11]: 0.05
Quantification (yeast two-hybrid reporter activity) (PCNAAt in DB-vector): 0
Quantification (yeast two-hybrid reporter activity) (ATMAP2 in DB-vector): 0
Quantification (yeast two-hybrid reporter activity) [12]: 0
Quantification (yeast two-hybrid reporter activity) [13]: 2.65

B7: ICK2 (AD construct) (other, not shown: large carriers)
chain: MAAVRRRERDVVEENGVTTTTVKRRKMEEEVDLVESRIILSPCVQATNRGGIVARNSAGASETSVVIVRRRDSPPVEEQCQIEEEDSSVSCCSTSEEKSKRRIEFVDLEENNGDDRETETSWIYDDLNKSEESMNMDSSSVAVEDVESRRRLRKSLHETVKEAELEDFFQVAEKDLRNKLLECSMKYNFDFEKDEPLGGGRYEWVKLNP
binding result [1]: no binding

B8: ICN8 (AD construct) (other, not shown: large carriers)
chain: MGKYIRKSKIDGAGAGAGGGGGGGGGGESSIALMDVVSPSSSSSLGVLTRAKSLALQQQQQRCLLQKPSSPSSLPPTSASPNPPSKQKMKKKQQQMNDCGSYLQLRSRRLQKKPPIVVIRSTKRRKQQRRNETCGRNPNPRSNLDSIRGDGSRSDSVSESVVFGKDKDLISEINKDPTFGQNFFDLEEEHTQSFNRTTRESTPCSLIRRPEIMTTPGSSTKLNICVSESNQREDSLSRSHRRRPTTPEMDEFFSGAEEEQQKQFIEKYNFDPVNEQPLPGRFEWTKVDD
notes: Yeast two-hybrid AD fusion; also called ICK7
binding result [1]: no binding
